Data published in patent US20070036811A1 (KRAEFTENS BEKAEMPELSE, published 2007).
Values belong to the binder of their own block, whether it stands above or below them.

Molecular target: HLA-A2 (human)
Test: assembly assay, T2 cells, [35S]-labelled class I MHC, immunoprecipitation and IEF

B5: ML-IAP54 (QILGQLRPL) (peptide)
peptide: QILGQLRPL
notes: Synthetic peptide bought from Research Genetics, >80% purity
C50 (peptide concentration for half maximal binding): 1 µM

B6: ML-IAP83 (GMGSEELRL) (peptide)
peptide: GMGSEELRL
notes: as for B5
C50 (peptide concentration for half maximal binding): 30 µM

B7: ML-IAP90 (RLASFYDWPL) (peptide)
peptide: RLASFYDWPL
notes: as for B5
C50 (peptide concentration for half maximal binding): 0.2 µM

B10: ML-IAP34 (SLGSPVLGL) (peptide)
peptide: SLGSPVLGL
notes: as for B5
C50 (peptide concentration for half maximal binding): 1 µM

Continued, values first:

C50 (peptide concentration for half maximal binding): 10 µM
B1: ML-IAP154 (LLRSKGRDFV) (peptide)
peptide: LLRSKGRDFV
notes: as for B5

C50 (peptide concentration for half maximal binding): > 100 µM
B2: ML-IAP230 (VLEPPGARDV) (peptide)
peptide: VLEPPGARDV
notes: as for B5

C50 (peptide concentration for half maximal binding): 20 µM
B3: ML-IAP280 (QLCPICRAPV) (peptide)
peptide: QLCPICRAPV
notes: as for B5

C50 (peptide concentration for half maximal binding): 0.9 µM
B4: ML-IAP99 (LTAEVPPEL) (peptide)
peptide: LTAEVPPEL
notes: as for B5

C50 (peptide concentration for half maximal binding): 1 µM
B8: ML-IAP245 (RLQEERTCKV) (peptide)
peptide: RLQEERTCKV
notes: as for B5

C50 (peptide concentration for half maximal binding): > 100 µM
B9: ML-IAP98 (PLTAEVPPEL) (peptide)
peptide: PLTAEVPPEL
notes: as for B5
